The DeepSol protein solubility set

Assay: soluble on expression in E. coli; label from the status in PepcDB or PDB records

| Sequence | soluble on expression in E. coli |
| --- | --- |
| MAHHHHHHMCYDCATSSSLVTTILNGMHVFNLDERFYGANLAAGLSASNVESYPYHTIGEEPLMSSCFFNAGQLFAVGSSCGSVTVVSRRSRALTSCYATPDSFPIRSLSEIPAQPNCLLTCTEQGAAIVDVERSQLRMSLANPAAGRAVAAVPLQLHTFVVANYDGKVLLYDTRYRSSPSSVLSLPDQITCLAVSRDTPEVCVGTVGGRVFTLRCAEGPQREQAFGMSNRRSPVRCVAMDNGRIAAGDLAGRLALIDTADVPDPTVYWSAETLLRLPRPSGRARHA | not soluble |
| MSLSFFAHFSPLSGHQKQAAHQILPHLFLGSAAAARSATWLQQNRITHIVCVHNAEVSPHELKRQLTISHPAGDTRATSHHHRQQTVAGQLVVHPDRCVYCCCYVQDTPQQVFLPVLFPVMDFIDNAIRDQSFRGGSPSGAPHGNVLVHCAKGISRSASLVICYLMFRRCWSYADSFTYIRRKRPIYPNVGFQASILTQLLETQELVENMFSQSEGHHHHHH | not soluble |
| MGSDKIHHHHHHMNFDEKPYLRSIALKHQGLAEAKVTLIDGEFHDESAVRVQDCYPFTIPALAGFDSLDFDADVTFFVGENGSGKSTLLEAIAVAMGLNAEGGNKNTHFATKVSHSNLGYYLKTIKSFKKPKDSYFLRAESFYNLASYMEEDGREAYLGSYGGTSLHQQSHGESFMATLLHKFRGQGLYLMDEPEAALSPSRQLAALSAIHQLVENKSQFIIATHSPILLAYPRAKIYQFSNQGIVQITYQETEHYQITKAFLNQPEKLLASLGVG | not soluble |
| MDCDIASYHVDSFDFLVSKGCQFAAQAVPAEKFRLKNGDAVTMKFTSAQLHKPTLDTGAKLTSDTLPLLPAECRQRGLTYAGNLKVGIDVHVNGSRLDIIEIILGKVPIMLRSEGCHLRGMSRKELVVAGEEPIEKGGYFIVNGSEKVIRLLIANRRNFPIAIIRKTFKEKGKLFSEFGVMMRSVKENHTAVMMTLHYLDTGTMQLALQFRREIFYVPLMYIVKALTDKNDAVISAGFKRGRNQDQFYSSCILNMLAQCQEEEILNQEAAIRAIGSRFRVAVSDRVAPWEDDLEAGRFIIRECVLIHLDSDEEKFHTLAYMTQKLIALVKGECAPETPDNPQFQEASVSGHILLLILRERMENIIGMVRRKLEYMSSRKDFILTSAAILKALGNHTGGEITRGMAYFLATGNLVTRVGLALQQESGFSVIAERINQLRFVSHFRAIHRGAFFMEMRTTDVRKLRPEAWGFICPVHTPDGAPCGLLNHVTASCRIVTDLSDNSNVPSLLAELGMYTHKTVALAPPGEELYPVLMNGRFLGYVPITKAASIERYLRCAKVAKDARIPYTSEIALVRRSTDIKNIQTQYPGIYILSDAGRLIRPVRNLAMDAVEHIGTFEQVYLSVVLDPEEAEPGVTMHQELHPSCLFSFAGNLIPFPDHNQSPRNVYQCQMGKQTMGTAVHAWHSRADNKMYRLQFPQQPMLKLEAYEKYEMDEYPLGTNACVAVISYTGYDMEDAMTINKASYQRGFAHGTVIKVERINLVTERERKTIFYRNPREEIKTVGPDGLPIPGRRYFLDEVYYVTFNMETGDFRTHKFHYAEPAYCGLVRIVEQGEGDSGAKHALIQWRIERNPIIGDKFASRHGQKGINSFLWPVESLPFSETGMVPDIIFNPHGFPSRMTIGMMIESMAGKAAATHGENYDASPFVFNEDNTAINHFGELLTKAGYNYYGNETFYSGVDGRQMEMQIFFGIVYYQRLRHMIADKFQVRATGPIDPITHQPVKGRKKGGGIRFGEMERDAIIAHGTSFVLQDRLLNCSDRDVAYACRRCGSLLSVLMSSRAGSHLLKKKRKDDEPLDYTETQRCRTCDKDDQVFLLQVPRVFRYLTAELAAMNVKIKLGIEHPSKVTGS | not soluble |
| MGSDKIHHHHHHMKVQYECLTCMANQCQRIVEMATQDMDIRRRAMILAAKLLAKEYNENAIPAIAGSLIFLELYKFLGNDDPFIEYKLKSEEMARKVADIIKRKLKLDFELAVKLAIIGNVIDFSVGFSPEDLEEEVEKMLKDKLYIDDSKELFEEVKRAENILYITDNVGEHYFDAILIEKIREISNAEVYIAGKEGPIINDATVEDLKRAGLEKLGKVISTGTRIVGVPLKLVSREFMEAFNKADVIIAKGQGNFETLSEINDSRIFFLLKAKCPAVARELKVPKGALVCMRNKFKL | soluble |
| MIGELVKDKILIKNIEDARLIYKMGYYGKPIGISKPKSAEEINSELILSLIEGVYLVKKGKLEIVSNGERLDFERLYQIGVTQIPRFRILYSVYEDLREKGYVVRSGIKYGADFAVYTIGPGIEHAPYLVIALDENSQISSNEILGFGRVSHSTRKELILGIVNLTNGKIRYIMFKWLKM | soluble |
| MSLQPVPDAGPWGDYLCDSPWALINSSIYAMKEIEPEPDFILWTGDDTPHVPDEKLGEAAVLEIVERLTKLIREVFPDTKVYAALGNHDFHPKNQFPAGSNNIYNQIAELWKPWLSNESIALFKKGAFYCEKLPGPSGAGRIVVLNTNLYYTSNALTADMADPGQQFQWLEDVLTDASKAGDMVYIVGHVPPGFFEKTQNKAWFREGFNEKYLKVVRKHHRVIAGQFFGHHHTDSFRMLYDDAGVPISAMFITPGVTPWKTTLPGVVNGANNPAIRVFEYDRATLSLKEGHHHHHH | not soluble |
| MSLKFIGECRDRWPIAVLCRTLEVTRAAYYRFAGRGPTVTEIKQTQIIQAVKEIRLEKHHDAYGSPRMQRAIVKRGVVCCRNTVAKCMRHAGIQANRRTKFRISTTDSNHDQPIASNLLGQNFTTEAINRVWLTDITYIPTQEGSTYLCAFVDLHSRKIVSWKTSRNMDSELVVGAFDQALTFRKPNAGLIVHSDRGSQFASDHFRRRLAASGLVQSMSRRGNCYDNAPMESFFKSYKTEEAQQIYDTHEHATRGVSDYIERFYNPHRLHSSLGYLSPIDFEQAIKEPSLVSESEGHHHHHH | not soluble |
| MGGMDTGVTSPRVLVVDDDSDVLASLERGLRLSGFEVATAVDGAEALRSATENRPDAIVLDINMPVLDGVSVVTALRAMDNDVPVCVLSARSSVDDRVAGLEAGADDYLVKPFVLAELVARVKALLRRRGSTATSSSETITVGPLEVDIPGRRARVNGVDVDLTKREFDLLAVLAEHKTAVLSRAQLLELVWGYDFAADTNVVDVFIGYLRRKLEAGGGPRLLHTVRGVGFVLRMQ | soluble |
| MSELKDIIAAVTPCKGADFELQALKIRQPQGDEVLVKVVATGMCHTDLIVRDQKYPVPLPAVLGHEGSGIIEAIGPNVTELQVGDHVVLSYGYCGKCTQCNTGNPAYCSEFFGRNFSGADSEGNHALCTHDQGVVNDHFFAQSSFATYALSRENNTVKVTKDVPIELLGPLGCGIQTGAGACINALKVTPASSFVTWGAGAVGLSALLAAKVCGASIIIAVDIVESRLELAKQLGATHVINSKTQDPVAAIKEITDGGVNFALESTGSPEILKQGVDALGILGKIAVVGAPQLGTTAQFDVNDLLLGGKTILGVVEGSGSPKKFIPELVRLYQQGKFPFDQLVKFYAFDEINQAAIDSRKGITLKPIIKIA | soluble |
| MRGLSRRVQAMKPDAVVAVNAKALELRRQGVDLVALTAGEPDFDTPEHVKEAARRALAQGKTKYAPPAGIPELREALAEKFRRENGLSVTPEETIVTVGGSQALFNLFQAILDPGDEVIVLSPYWVSYPEMVRFAGGVVVEVETLPEEGFVPDPERVRRAITPRTKALVVNSPNNPTGAVYPKEVLEALARLAVEHDFYLVSDEIYEHLLYEGEHFSPGRVAPEHTLTVNGAAKAFAMTGWRIGYACGPKEVIKAMASVSRQSTTSPDTIAQWATLEALTNQEASRAFVEMAREAYRRRRDLLLEGLTALGLKAVRPSGAFYVLMDTSPIAPDEVRAAERLLEAGVAVVPGTDFAAFGHVRLSYATSEENLRKALERFARVLGRA | soluble |
| AHHHHHHGSIVPALIGSLPRPIGLAKKLEQYYIGRLDERKLEEAYREYTRRAFEKLRDAKIKVITDGLYRWDDIFNPFIRFIDGIEVNGLFKFYENNFFYRSPVVRGEIALKENPIPEWISIAQEIKEDVYPEATLKAVLPGPVTLAYHSINEYYKTLTDLAEAYAQVIGELIKELDVKIVELQEPSLAAEISEATKNIEDRVDKEVAKNIIEDLGRIKKLWVVTYFGTPQVLPEGVILNVDLIEGSVPEEYSGEIGLGIVDARTTKMERADRLRDKIRKYLAKFETIYVTPNTLLDFLPESVAWKKLRLLGRLGGE | not soluble |
| MKTIEVDDELYSYIASHTKHIGESRSDILRRMLKFSAASQKPVKTIKDKVRAMRELLLSDEYAEQKRAVNRFMLLLSTLYSLDAQAFAEATESLHGRTRVYFAADEQTLLKNGNQTKPKHVPGTPYWVITNTNTGRKCSMIEHIMQSMQFPAELIEKVCGTI | soluble |
| MGHHHHHHSHMACYIYQLPSWVLDDLCRNMDALSEWDWMEFASYVITDLTQLRKIKSMERVQGVSITRELLWWWGMRQATVQQLVDLLCRLELYRAAQIILNWKPAPEIRCPIPAFPDSVK | soluble |
| GAMPPIFLPPPNYLFVRDVWKSNLYSEFAVIRQLVSQYNHVSISTEFVGTLARPIGTFRSKVDYHYQTMRANVDFLNPIQLGLSLSDANGNKPDNGPSTWQFNFEFDPKKEIMSTESLELLRKSGINFEKHENLGIDVFEFSQLLMDSGLMMDDSVTWITYHAAYDLGFLINILMNDSMPNNKEDFEWWVHQYMPNFYDLNLVYKIIQEFKNPQLQQSSQQQQQQQYSLTTLADELGLPRFSIFTTTGGQSLLMLLSFCQLSKLSMHKFPNGTDFAKYQGVIYGIDGDQ | soluble |
| MAEQRFCVDYAKRGTAGCKKCKEKIVKGVCRIGKVVPNPFSESGGDMKEWYHIKCMFEKLERARATTKKIEDLTELEGWEELEDNEKEQITQHIADLSSKAAGTPKKKAVVQAKLTT | soluble |
| KENGKRTEVKIGAKTSVMKEKDGKLFTGKANKETNKVDGANATEDADEGKGLVTAKDVIDAVNKTGWRIKTTDANGQNGDFATVASGTNVTFASGNGTTATVTNGTDGITVKYDAK | soluble |
| MKKLAFAVTVASGAAAVIANHEADASTQHTVKSGESLWSISQQYGVSVDEIKQSNDINNNMVFPGQVIEIGGSSSQESGSTSNNTSNGSSHTVQSGESLNIIANQYGVSVDEIIAANNLNGYLIHPNQTLTIPGTTGTGGSGGTATETPSSNTGGSTASDANLYDWGQCTWHVFNRRAETGQPISTYWWNADHWANNASADGYTVNNAPTAGSIMQNYEGPVGHVAYVERVNPDGSILISEMNYNTPPGTVDYRTIPASQASSYNYIHLEHHHHHH | not soluble |
| MCGRFVITSAPAAIRQLFGYADQPNFPSRYNIAPTQPVPVVIVDEGARRFRLMRWGLIPSWVKDPRMFSLLINARADTIQDKPAFRNAFRRRRCLVPADGYYEWKAGGSRKQPYFIHPAGGGPIGFAALWETWTGPNGEELDTVAIVTTAARGGLADLHDRVPVTIAPHHFARWLETDETDTEAVMALLGPPGEGEFVWHPVSTAVNRTANDNPQLILPIAAEEVEAPPPAVAKPAPPKRAARPKISADDSGQGSLFLEHHHHHH | soluble |
| LRDFNYSIAGNLTWARNKVIDLLEPAGEKNNPRQRSTGHSMSQYFGYEALGLFQSDEEANNWPQPQFGKAKAGDIKYKDQNGDGIIDAEDEIAIGRSNYPELVYGLNLNAEWKGFDITFFFQGAALADFYYNGYLAFPYIEGRGGALLEHHIGNTWTPENPKAEFPRLYYGGNANNQLFSSFWMRNGSYLRLKNVEIGYDFKKLLLSKVSEIQGLRLYFSGSNLLTWSQIKYFDPELRSTDGSAYPQMKTFVFGANITF | not soluble |
| MTSTPIERAVYIVSDSTGITAETFSHSVLSQFDEVNFKPVRLPFIDTLDKAREVVARINRNALEAGVPPIVFSTLVNPEILALVRQSNGVFLDLFGTFVSHIEQALGLKSSHSIGRSHMAANSEKYRNRIDAINFSLAHDDGQFVNQLDQADVILLGVSRCGKTPTSLYLAMQYAVKAANFPLTPDDFERGALPKTIAPYRGKLFGLSIQPERLAEVRNERRPNSHYARLEQCRYEVAEAERMMRREGISWLSTTTKSIEEIATTVLQEVGLERVAAALEHHHHHH | soluble |
